From US20060239990A1, “Protein Arginine N-Methyltransferase 2 (PRMT-2)” (priority 2003, published 2006)

T1: RB (Homo sapiens, UniProt P06400)
T1 construct: coding region of RB cDNA was subcloned into pGEX-6P (Amersham/Pharmacia) for generation of GST-RB; made in house
T1 sequence (P06400 1-928): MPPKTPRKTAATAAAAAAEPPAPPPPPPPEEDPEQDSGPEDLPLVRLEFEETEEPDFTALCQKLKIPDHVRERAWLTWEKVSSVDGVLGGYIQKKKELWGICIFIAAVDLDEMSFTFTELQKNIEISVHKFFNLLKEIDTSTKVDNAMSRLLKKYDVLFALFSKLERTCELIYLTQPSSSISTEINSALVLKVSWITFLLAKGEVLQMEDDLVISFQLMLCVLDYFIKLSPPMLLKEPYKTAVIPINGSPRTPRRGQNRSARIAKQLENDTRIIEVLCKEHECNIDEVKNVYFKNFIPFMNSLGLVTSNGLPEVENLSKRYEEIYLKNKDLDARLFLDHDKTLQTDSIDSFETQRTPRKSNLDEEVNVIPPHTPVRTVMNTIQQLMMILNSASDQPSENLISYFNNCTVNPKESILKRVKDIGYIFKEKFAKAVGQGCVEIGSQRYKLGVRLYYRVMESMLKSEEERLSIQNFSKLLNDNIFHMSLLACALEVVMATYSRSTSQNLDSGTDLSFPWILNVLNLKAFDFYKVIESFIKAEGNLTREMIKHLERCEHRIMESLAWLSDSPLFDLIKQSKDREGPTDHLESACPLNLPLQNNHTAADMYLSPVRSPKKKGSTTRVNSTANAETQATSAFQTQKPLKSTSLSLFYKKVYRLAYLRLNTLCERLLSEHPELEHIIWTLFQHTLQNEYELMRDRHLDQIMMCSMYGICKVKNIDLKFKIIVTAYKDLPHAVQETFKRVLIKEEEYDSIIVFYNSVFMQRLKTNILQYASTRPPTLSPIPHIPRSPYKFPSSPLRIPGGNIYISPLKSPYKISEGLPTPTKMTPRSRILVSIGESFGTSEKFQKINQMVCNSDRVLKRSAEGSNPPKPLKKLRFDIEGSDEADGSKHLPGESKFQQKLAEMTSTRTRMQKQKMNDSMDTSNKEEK


Legend:
RB = molecular target: T1, RB; assay: In vitro binding assay with GST-RB; settings: S35-labeled in vitro translated protein
Method: The crude cell lysate of the GST-fusion proteins was prepared and purified according to the manufacture's protocol (Amersham/Pharmacia). [^35S]-methionine-labeled protein was produced by in vitro transcription/translation using the TNT T7-coupled reticulocyte lysate system (Promega). [^35S]-methionine-labeled protein and GST-fusion protein bound to glutathione sepharose 4B beads were incubated in 500 μl of HNE buffer (50 mM Hepes, pH 7.8, 150 mM NaCl, 1 mM EDTA, 1 mM DTT, 1% NP40, and 1× protease inhibitor mix (Complete: Roche)) at 4° C. for 1 hour. Beads were washed four times with HNE buffer, and then analyzed on an SDS-PAGE gradient gel (4-15%). For the detection of endogenous PRMT-2 interaction with RB, MEFs were lysed with WCL buffer (50 mM Hepes, pH 7.8, 400 mM NaCl, 2 mM EDTA, 1 mM DTT, 0.2% NP40, 10% Glycerol, 20 mM α-glycerophosphate, 5 mM NaF, 0.1 mM NaVO4, and 1× protease inhibitor mix). Then, 1 mg of whole cell extracts were incubated with HNE buffer without DTT and 3 μg of antibodies as indicated. The immune complexes were isolated using protein G beads, and washed four times with HNE buffer. The precipitated protein was boiled with SDS-loading buffer and resolved on SDS-PAGE. For immunoprecipitation of HA-tagged protein, transfected cells were lysed with RIPA buffer (phosphate buffer saline containing 1% NP40, 0.5% sodium deoxycholate, 0.1% SDS, and 1× Complete), and 100 μg of whole cell lysates were immunoprecipitated with anti-HA antibodies and washed in RIPA buffer. Western blot analysis was performed as described in Tanner et al. (1998). Circ Res, 82, 396-403.
To test whether PRMT family members interact with RB, S^35-labeled in vitro translated PRMT1, PRMT2, PRMT3, and PRMT4 (CARM1) were incubated with GST-RB fusion proteins or control GST, and co-precipitated labeled proteins were resolved by SDS-PAGE. […] An equal amount of GST-RB and GST were loaded in each lane, verified by Coomassie staining (FIG. 8B).

E2F1 = assay: E2F reporter assay (GAL4-E2F1 activator, luciferase); assay type: cell-based; settings: U2OS cells, in the presence of the E2F1 activator
Method: HeLa cells, U2OS cells, and Saos2 cells were seeded at a density of 5×10^4 per well in 24-well plates. Cells were transfected 24 hours later with the indicated plasmid and with 20 ng of pRL-TK (Promega) as an internal control to normalize transfection efficiency. The amount of CMV promoter in the transfection was kept constant using empty vector. Cells were harvested at 30 or 36 hour after transfection and luciferase activity was analyzed by Dual-Luciferase Reporter Assay System (Promega). Luciferase activity was measured as a ratio of Firefly to Renilla. To study endogenous E2F activity in MEFs, PRMT-2^+/+ or PRMT-2^−/− MEFs were seeded at a density of 3×10^5 per well in 6-well plates. Cells were transfected 24 hours later with 3 μg of E2F4B-Luc and 10 ng of pRL-TK plasmid. Cells were harvested at 36 hour after transfection and analyzed for luciferase activity as described above.

HIV-1 LTR = assay: HIV-1 reporter transcription, transient co-transfection; assay type: cell-based, human; settings: 293T cells, co-transfection
Method: Cell culture, transfection, and reporter gene assays. The E1A-transformed, human kidney cell line, 293, and NIH-3T3 cells were maintained in Dulbecco's Modified Eagle Medium (DMEM) supplemented with 10% fetal calf serum and penicillin-streptomycin at 37° C. in 5% carbon dioxide in tissue culture grade Petri dishes. PRMT-2−/− mouse embryo fibroblasts (MEFs) and wild type MEFs were prepared from day 13.5 embryos and maintained in DMEM supplemented with 10% fetal calf serum. MEFs at passage 4 were used in this experiment. Lipofectamine Plus™ reagent (Boehringer Mannheim) was used to transfect both 293 and NIH-3T3 cells according to directions from the manufacturer. […] TNF-α stimulation of cells was done using recombinant TNF-α (200 U/ml) for 12 hours. Transfected cells were harvested at 36 hours, and CAT activity was assayed on 10 to 100 μg of protein from whole cell extracts. CAT assays were performed essentially as described in Leung, K. & Nabel, G. J. Nature 333, 776-778 (1988). To analyze the κB-reporter activity in MEFs, cells were transfected with the reporter (2×kB-Luc) and PRL-TK vector (Promega) using FuGENE6 transfection reagent (Roche). Luciferase activity was analyzed by Dual-Luciferase Reporter Assay System (Promega).
To determine whether PRMT-1, 2 or 3 could affect NF-κB function, their potential to regulate effects on transcription of the human immunodeficiency virus type 1 (HIV-1) was examined. Transient co-transfections were performed using PRMT1, PRMT2 and PRMT3 expression plasmids with an HIV-1 reporter plasmid in the human renal epithelial cell line, 293T.
To determine its dependence on NF-κB, human immunodeficiency virus type 1 (HIV-1) reporter plasmids with wild-type (WT) or mutant (ΔκB) sites were co-transfected transiently with control or PRMT2 expression plasmids in the different cell lines. […] The KB effect was dose-dependent and was also observed with other inducers of NF-κB, including phorbol […] (PMA) (FIG. 2B, right panel).

Molecule	binding to RB (RB)	E2F1 activity (E2F1)	effect on transcription of the HIV-1 reporter plasmid (HIV-1 LTR)
PRMT2(1-95&219-433): internal deletion of amino acid 96-218, deleting the AdoMet binding domain (protein) MATSGDCPRSESQGEEPAECSEAGLLQEGVQPEEFVAIADYAATDETQLSFLRGEKILILRQTTADWWWGERAGCCGYIPANHVGKHVDEYDPEDFEFMIESILYARDAWLKEDGVIWPTMAALHLVPCSADKDYRSKVLFWDNAYEFNLSALKSLAVKEFFSKPKYNHILKPEDCLSEPCTILQLDMRTVQISDLETLRGELRFDIRKAGTLHGFTAWFSVHFQSLQEGQPPQVLSTGPFHPTTHWKQTLFMMDDPVPVHTGDVVTGSVVLQRNPVWRRHMSVALSWAVTSRQDPTSQKVGEKVFPIWR	did not bind GST-RB	failed to repress E2F1 activity	
PRMT4: protein methyltransferase CARM1 (PRMT4) (protein) AAAAAAVGPGAGGAGSAVPGGAGPCATVSVFPGARLLTIGDANGEIQRHAEQQALRLEVRAGPDSAGIALYSHEDVCVFKCSVSRETECSRVGKQSFIITLGCNSVLIQFATPNDFCSFYNILKTCRGHTLERSVFSERTEESSAVQYFQFYGYLSQQQNMMQDYVRTGTYQRAILQNHTDFKDKIVLDVGCGSGILSFFAAQAGARKIYAVEASTMAQHAEVLVKSNNLTDRIVVIPGKVEEVSLPEQVDIIISEPMGYMLFNERMLESYLHAKKYLKPSGNMFPTIGDVHLAPFTDEQLYMEQFTKANFWYQPSFHGVDLSALRGAAVDEYFRQPVVDTFDIRILMAKSVKYTVNFLEAKEGDLHRIEIPFKFHMLHSGLVHGLAFWFDVAFIGSIMTVWLSTAPTEPLTHWYQVRCLFQSPLFAKAGDTLSGTCLLIANKRQSYDISIVAQVDQTGSKSSNLLDLKNPFFRYTGTTPSPPPGSHYTSPSENMWNTGSTYNLSSGMAVAGMPTAYDLSSVIASGSSVGHNNLIPLANTGIVNHTHSRMGSIMSTGIVQGSSGAQGSGGGSTSAHYAVNSQFTMGGPAISMASPMSIPTNTMHYGS	do not bind RB		failed to inhibit NF-κB transcription specifically
